Source: the supplement of paper PMC9170038

System: MS2 coat protein
Assay: apparent KD of MS2 coat protein; designed switch direction (-1 OFF switch, 1 ON switch): 1; higher = weaker reporter binding
In short: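 Stalled E. coli RNA polymerase transcribed designed RNA switches on Illumina chips, which were then titrated with SNAP-549-labelled MS2 coat protein, doubling from 0.7 or 1.5 nM to 3 µM. Steps lasted from 0.8–1.5 h at the lowest concentration to 10–20 min at the highest. The apparent KD is each design's median over clusters of curve-fitted normalised fluorescence.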

[1] = input ligand: microRNA oligo, concentration not stated
[2] = Eterna round: R95, input ligand: FMN 200 uM
[3] = Eterna round: R95, input ligand: microRNA oligo, concentration not stated
[4] = Eterna round: R95, input ligand: none

Sequence: UCUUGGUUUUUGCUCGUUUUUUGUGUUGAACAUGAGGAUCACCCAUGUAUUGUACGGUCCAGUUUGAUAAUGGUCCG [JMF 34] (Eterna round: R96, puzzle: Sensor for hsa-mir-208a)
- apparent KD of MS2 coat protein (input ligand: FMN 200 uM): 35.2 nM
- apparent KD of MS2 coat protein [1]: 13.3 nM
- apparent KD of MS2 coat protein (input ligand: none): 40.2 nM

Sequence: UCUUGGUUUUUGCUCGUUUUUUGUGUUGAACAUGAGGAUCACCCAUGUAUUGUACGGUCCAGUUUGAUAAUGGUCCG [JMF 34] (puzzle: Sensor for hsa-mir-208a)
- apparent KD of MS2 coat protein [2]: 25.6 nM
- apparent KD of MS2 coat protein [3]: 14.3 nM
- apparent KD of MS2 coat protein [4]: 27.3 nM

Sequence: UCUUGGUUUUUGCUCGUUUUUUGUGUUGAACAUGAGGAUCACCCAUGUAUUGUACGGUCCGGUUUGAUAAUGGUCCG [JMF 13] (puzzle: Sensor for hsa-mir-208a)
- apparent KD of MS2 coat protein [2]: 26 nM
- apparent KD of MS2 coat protein [3]: 15.5 nM
- apparent KD of MS2 coat protein [4]: 27.1 nM

Sequence: UCUUGGUUUUUGCUCGUUUUUUGUGUUGAACAUGAGGAUCACCCAUGUAUUGUACGGUCCGGUUUGAUAGUGGUCCA [JMF 45] (puzzle: Sensor for hsa-mir-208a)
- apparent KD of MS2 coat protein [2]: 111 nM
- apparent KD of MS2 coat protein [3]: 71.6 nM
- apparent KD of MS2 coat protein [4]: 120 nM

Sequence: UGAACCUUCACAGGAUAUCAUGCGAAAAUUGCGUGAGAAGGGUGGAUGUGGUGUUCAAAGAUGCACAUGAGGAUCACCCAUGUA [SameState NG1 #48] (Eterna round: R96, puzzle: Same State NG 1)
- apparent KD of MS2 coat protein (input ligand: FMN 200 uM): 106 nM
- apparent KD of MS2 coat protein [1]: 166 nM
- apparent KD of MS2 coat protein (input ligand: none): 203 nM

Sequence: UGAAUAUCUACAGGAUAUGAGUUGUAUAGUGGAUCAGAAGGGUGGGUGUUUUGCACGGUGUGUUACAUGAGGAUCACCCAUGUU [SameState NG1 #25] (Eterna round: R96, puzzle: Same State NG 1)
- apparent KD of MS2 coat protein (input ligand: FMN 200 uM): 302 nM
- apparent KD of MS2 coat protein [1]: 139 nM
- apparent KD of MS2 coat protein (input ligand: none): 324 nM

Sequence: UGCAUACGCCUACAAGAGGAGUCCUGCAGACAUGAGGAUCACCCAUGUAACUCGAAUUCAGUUCGUUCGUCUGUCGU [JR_hsamir208a_Sub1412] (Eterna round: R96, puzzle: Sensor for hsa-mir-208a)
- apparent KD of MS2 coat protein (input ligand: FMN 200 uM): 57 nM
- apparent KD of MS2 coat protein [1]: 33.9 nM
- apparent KD of MS2 coat protein (input ligand: none): 52.9 nM

Sequence: UGCCUGAGUCGAGGAUAUUAUGGAUCAAUUAAUACAUGAGGAUCACCCAUGUAAUUAAUUUAACAUGAGAAGGCGACUCAGGCU [SSNG2/10-A3] (Eterna round: R96, puzzle: Same State NG 2)
- apparent KD of MS2 coat protein [1]: 7.93 nM

Sequence: UGGAUCUAGGCUUGCCUGGGUCCAUGCUGACAUGAGGAUCACCCAUGUGCAUCCUACAAGCUUUUUGCUUGUCAGUU (Eterna round: R96, puzzle: Sensor for hsa-mir-208a)
- apparent KD of MS2 coat protein (input ligand: FMN 200 uM): 575 nM
- apparent KD of MS2 coat protein [1]: 330 nM
- apparent KD of MS2 coat protein (input ligand: none): 289 nM

Sequence: UGGAUCUAGGCUUGCCUGGGUCCAUGCUGACAUGAGGAUCACCCAUGUGCAUCCUACAAGCUUUUUGCUUGUCAGUU (puzzle: Sensor for hsa-mir-208a)
- apparent KD of MS2 coat protein [2]: 232 nM
- apparent KD of MS2 coat protein [3]: 166 nM
- apparent KD of MS2 coat protein [4]: 135 nM

Sequence: UGGCUCAGACGAGGAUAUAUGUGGUCACAUGAGGAUCACCCAUGUCUCGAGCUUCGGCUCGAGGCAUAGAAGGCGUCUGAGCCA [SSNG2/5-A2] (Eterna round: R96, puzzle: Same State NG 2)
- apparent KD of MS2 coat protein (input ligand: FMN 200 uM): 1300 nM
- apparent KD of MS2 coat protein [1]: 50.8 nM
- apparent KD of MS2 coat protein (input ligand: none): 632 nM

Sequence: UGGCUGGUGCUAGGAUAUGCAUGAGGCCUCCUCGUAGAAGGAGCACGACAUGAGGAUCACCCAUGUGGCCGUCCGUGGGCGGCU [salish99_SSNG1_r04_015] (Eterna round: R96, puzzle: Same State NG 1)
- apparent KD of MS2 coat protein (input ligand: FMN 200 uM): 68 nM
- apparent KD of MS2 coat protein [1]: 44.8 nM
- apparent KD of MS2 coat protein (input ligand: none): 60.1 nM

Sequence: UGGUAACAUGAGGAUCACCCAUGUCAAAUGAAUCGAGGAUAUGGGAAGGAAGAAGAGAAACUAGAAGGCGAAGUUG [Altered State 1-5 - Jieux - Same State 1] (puzzle: Same State 1)
- apparent KD of MS2 coat protein [2]: 89 nM
- apparent KD of MS2 coat protein [3]: 101 nM
- apparent KD of MS2 coat protein [4]: 127 nM

Sequence: UGGUACAUGGGAGGAUAUCAUGCAGACAUGAGGAUCACCCAUGUAGCCAUGGAGACAUGGGUAUAUGAGAAGGCCCAUGUACCU [JL SSNG1 3.53] (Eterna round: R96, puzzle: Same State NG 2)
- apparent KD of MS2 coat protein (input ligand: FMN 200 uM): 145 nM
- apparent KD of MS2 coat protein [1]: 37.7 nM
- apparent KD of MS2 coat protein (input ligand: none): 207 nM

Sequence: UGGUACAUGGGAGGAUAUCAUGUAGAAACAUGAGGAUCACCCAUGUAGAUGGCCGGUAACCGGAAUGAGAAGGCCCAUGUACCU [JL SSNG1 3.63] (Eterna round: R96, puzzle: Same State NG 2)
- apparent KD of MS2 coat protein (input ligand: FMN 200 uM): 22.7 nM
- apparent KD of MS2 coat protein [1]: 18.9 nM
- apparent KD of MS2 coat protein (input ligand: none): 30.6 nM

Sequence: UGGUACAUGGGAGGAUAUCAUGUAGAAACAUGAGGAUCACCCAUGUAGUUGGCAGCUUUGCUGAAUGAGAAGGCCCAUGUACCU [JL SSNG1 3.59] (Eterna round: R96, puzzle: Same State NG 2)
- apparent KD of MS2 coat protein (input ligand: FMN 200 uM): 20.6 nM
- apparent KD of MS2 coat protein [1]: 19.5 nM
- apparent KD of MS2 coat protein (input ligand: none): 26.7 nM

Sequence: UGGUACAUGGGAGGAUAUCAUGUAGACACAUGAGGAUCACCCAUGUCGAUGGAGACAUCGGAGAUUGAGAAGGCCCAUGUACCU [JL SSNG1 3.55] (Eterna round: R96, puzzle: Same State NG 2)
- apparent KD of MS2 coat protein (input ligand: FMN 200 uM): 18.6 nM
- apparent KD of MS2 coat protein [1]: 291 nM
- apparent KD of MS2 coat protein (input ligand: none): 647 nM

Sequence: UGGUACAUGGGAGGAUAUCCUAUGGUGACAUGAGGAUCACCCAUGUAAUUGGAGCCGAAAGGCAUGGAGAAGGCCCAUGUACCU [JL SSNG1 3.78] (Eterna round: R96, puzzle: Same State NG 2)
- apparent KD of MS2 coat protein (input ligand: FMN 200 uM): 40.2 nM
- apparent KD of MS2 coat protein [1]: 31.4 nM
- apparent KD of MS2 coat protein (input ligand: none): 44.1 nM

Sequence: UGGUACAUGGGAGGAUAUCUCAUGGUGACAUGAGGAUCACCCAUGUAGUUGGAGCCGAAAGGCAGAGAGAAGGCCCAUGUACCU [JL SSNG1 3.77] (Eterna round: R96, puzzle: Same State NG 2)
- apparent KD of MS2 coat protein (input ligand: FMN 200 uM): 69.2 nM
- apparent KD of MS2 coat protein [1]: 65.7 nM
- apparent KD of MS2 coat protein (input ligand: none): 96.3 nM

Sequence: UGGUACAUGGGAGGAUAUCUCGUGGAGACAUGAGGAUCACCCAUGUAGAUGGCCGGUAACCGGUGAGAGAAGGCCCAUGUACCU [JL SSNG1 3.69] (Eterna round: R96, puzzle: Same State NG 2)
- apparent KD of MS2 coat protein (input ligand: FMN 200 uM): 71.6 nM
- apparent KD of MS2 coat protein [1]: 42.2 nM
- apparent KD of MS2 coat protein (input ligand: none): 141 nM

Sequence: UGUACCUUCACAGGAUAUCAUGCGAAAAUUGCGUGAGAAGGGUGAAUACUGUCUUACUAAGAGCACAUGAGGAUCACCCAUGUA [SameState NG1 #58] (Eterna round: R96, puzzle: Same State NG 1)
- apparent KD of MS2 coat protein (input ligand: FMN 200 uM): 269 nM
- apparent KD of MS2 coat protein [1]: 198 nM
- apparent KD of MS2 coat protein (input ligand: none): 296 nM

Sequence: UGUAUACAUGAGGAUCACCCAUGUCAACGUAGUCGAGGAUAUGGGCAGCCGUGAGGCGUACUAGAAGGCGAAGAGG [JL-ss1-3.06 ViennaUCT mod] (puzzle: Same State 1)
- apparent KD of MS2 coat protein [3]: 116 nM

Sequence: UGUUAACAUGAGGAUCACCCAUGUCAAAUGAAUGCAGGAUAUGGGAAGUAAUAAGAUAAACCAGAAGGGCAAGUUG [Altered State 1-17 - Jieux - Same State 1] (puzzle: Same State 1)
- apparent KD of MS2 coat protein [2]: 49.4 nM
- apparent KD of MS2 coat protein [3]: 162 nM
- apparent KD of MS2 coat protein [4]: 311 nM

Sequence: UGUUAUUAGACAGGAUAUUGAAUGUUAAGUAUUAACAUGAGGAUCACCCAUGUAUUUGAUUGGUACAAGAAGGGUCAUGUUCCU [JR_SSNG2_Sub016] (Eterna round: R96, puzzle: Same State NG 2)
- apparent KD of MS2 coat protein [1]: 399 nM
